± gives the uncertainty stated by the source.
Experiment: self-splicing fitness, log relative to wild type (ln ratio); higher = more splicing; Tetrahymena group I intron in knt gene, E. coli kanamycin selection, DiMSum; sequences stand for … in CUCUCU…GGAGGGAAAAGUUAUCAGGCAUGCACCUGGUAGCUAGUCUUUAAACCAAUAGAUUGCAUCGGUUUAAAAGGCAAGACCGUCAAAUUGCGGGAAAGGGGUCAACAGCCGUUCAGUACCAAGUCUCAGGGGAAACUUUGAGAUGGCCUUGCAAAGGGUAUGGUAAUAAGCUGACGGACAUGGUCCUAACCACGCAGCCAAGUCCUAAGUCAACAGAUCUUCUGUUGAUAUGGAUGCAGUUCACAGACUAAAUGUCGGUCGGGGAAGAUGUAUUCUUCUCAUAAGAUAUAGUCGGACCUCUCCUUAAUGGGAGCUAGCGGAUGAAGUGAUGCAACACUGGAGCCGCUGGGAACUAAUUUGUAUGCGAAAGUAUAUUGAUUAGUUUUGGAGUACUCGUGGUCG
Method in brief: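 The eight P1ex-region nucleotides of an intron in the knt kanamycin-resistance gene on pET-22b(+) were all randomised and the library put into E. coli BL21(DE3). Six replicate transformations were grown overnight at 37°C or 30°C on LB agar with or without 25 μg/mL kanamycin, together with 100 μg/mL carbenicillin, 50 μM IPTG and 0.2% rhamnose. Colonies were pooled and amplicon-sequenced on an Illumina HiSeq 2500. Fitness from DiMSum is the error-weighted combination of wild-type-normalised replicate fold changes, kanamycin over none.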

Sequence	self-splicing fitness (ln) (30 °C)	self-splicing fitness (ln) (37 °C)
CUUUAGCAAUAUUACGAUAC	-3.4 ± 0.39	-2.42 ± 0.45
CUUUAGCAAUAUUACGCACG	-1.41 ± 0.21	-0.277 ± 0.2
CUUUAGCAAUAUUACGCAGG	-2.83 ± 0.39	–
CUUUAGCAAUAUUACGCCGA	-2.8 ± 0.48	-2.32 ± 0.39
CUUUAGCAAUAUUACGCGGU	-2.14 ± 0.19	-0.796 ± 0.22
CUUUAGCAAUAUUACGCGUC	-4.35 ± 0.3	-2.85 ± 0.22
CUUUAGCAAUAUUACGCUGC	-3.39 ± 0.38	0.317 ± 0.36
CUUUAGCAAUAUUACGGCGC	-2.73 ± 0.37	–
CUUUAGCAAUAUUACGGGCC	-3.32 ± 0.16	-2.64 ± 0.21
CUUUAGCAAUAUUACGGGUA	-3.97 ± 0.47	-2.56 ± 0.21
CUUUAGCAAUAUUACGGUUA	-3.31 ± 0.28	-3.19 ± 0.37
CUUUAGCAAUAUUACGGUUC	-3.33 ± 0.3	-2.83 ± 0.29
CUUUAGCAAUAUUACGUAAC	–	-1.64 ± 0.37
CUUUAGCAAUAUUACGUAAG	-0.953 ± 0.081	-0.626 ± 0.11
CUUUAGCAAUAUUACGUCAU	-4.6 ± 0.39	-2.13 ± 0.23
GAAAAGCAAUAUUACGAAGU	-2.98 ± 0.18	-0.976 ± 0.2
GAAAAGCAAUAUUACGACCU	-0.497 ± 0.13	-1.42 ± 0.12
GAAAAGCAAUAUUACGACGA	-0.234 ± 0.09	-0.0451 ± 0.096
GAAAAGCAAUAUUACGCAUA	-1.72 ± 0.093	-0.672 ± 0.083
GAAAAGCAAUAUUACGCCAG	-2.72 ± 0.21	-2.28 ± 0.32
GAAAAGCAAUAUUACGCGUC	-4.29 ± 0.27	-2.78 ± 0.24
GAAAAGCAAUAUUACGCUCG	-0.762 ± 0.11	-0.303 ± 0.15
GAAAAGCAAUAUUACGGAAC	-2.14 ± 0.13	-1.25 ± 0.15
GAAAAGCAAUAUUACGGAAU	-2.81 ± 0.13	-1.07 ± 0.1
GAAAAGCAAUAUUACGGAGG	-2.71 ± 0.14	-1.73 ± 0.18

Sequence	self-splicing fitness (ln) (30 °C)	self-splicing fitness (ln) (37 °C)
GAAAAGCAAUAUUACGGGCG	-1.32 ± 0.071	-0.282 ± 0.1
GAAAAGCAAUAUUACGGGGC	-2.89 ± 0.16	-3.46 ± 0.37
GAAAAGCAAUAUUACGGUUA	-0.324 ± 0.062	-0.0141 ± 0.067
GAAAAGCAAUAUUACGUACG	-1.16 ± 0.061	-0.9 ± 0.079
GAAAAGCAAUAUUACGUAUC	-3.9 ± 0.15	-1.48 ± 0.1
GAAAAGCAAUAUUACGUCAU	-1.82 ± 0.088	-0.42 ± 0.097
GAAAAGCAAUAUUACGUGGA	-2.96 ± 0.12	-1.89 ± 0.12
GAACAGCAAUAUUACGAAAC	-0.693 ± 0.1	-0.301 ± 0.12
GAACAGCAAUAUUACGAAAU	-1.67 ± 0.12	-0.204 ± 0.14
GAACAGCAAUAUUACGACAG	-3.37 ± 0.18	-2.55 ± 0.17
GAACAGCAAUAUUACGACCC	-0.0445 ± 0.095	0.121 ± 0.11
GAACAGCAAUAUUACGACUU	-0.206 ± 0.072	0.314 ± 0.088
GAACAGCAAUAUUACGAGGG	-3.29 ± 0.22	-1.87 ± 0.22
GAACAGCAAUAUUACGAGGU	-3.08 ± 0.14	-1.71 ± 0.12
GAACAGCAAUAUUACGAUUC	-1.65 ± 0.072	-1.21 ± 0.11
GAACAGCAAUAUUACGAUUG	-1.62 ± 0.082	-1.26 ± 0.11
GAACAGCAAUAUUACGCAUA	-0.914 ± 0.079	-0.68 ± 0.094
GAACAGCAAUAUUACGCAUU	-1.67 ± 0.095	-0.812 ± 0.12
GAACAGCAAUAUUACGCCCC	-1.22 ± 0.25	-0.835 ± 0.47
GAACAGCAAUAUUACGCCCG	-2.49 ± 0.22	-0.797 ± 0.2
GAACAGCAAUAUUACGCGGU	-3.6 ± 0.19	-2.82 ± 0.21
GAACAGCAAUAUUACGCGUA	-0.925 ± 0.072	-0.411 ± 0.07
GAACAGCAAUAUUACGGCUU	-0.492 ± 0.064	0.239 ± 0.087
GAACAGCAAUAUUACGGGAG	-2.06 ± 0.086	-1.47 ± 0.097
GAACAGCAAUAUUACGGGCG	-1.68 ± 0.086	-0.0108 ± 0.097

Sequence	self-splicing fitness (ln) (30 °C)	self-splicing fitness (ln) (37 °C)
GAACAGCAAUAUUACGGUAG	-2.81 ± 0.12	-1.87 ± 0.14
GAACAGCAAUAUUACGGUUC	-3 ± 0.14	-2.93 ± 0.22
GAACAGCAAUAUUACGUAAC	-1.12 ± 0.082	-0.127 ± 0.1
GAACAGCAAUAUUACGUACG	-0.821 ± 0.081	-0.0209 ± 0.11
GAACAGCAAUAUUACGUAUU	-1.57 ± 0.063	-0.99 ± 0.075
GAACAGCAAUAUUACGUCAU	-0.993 ± 0.069	-0.47 ± 0.084
GAACAGCAAUAUUACGUCUU	-0.598 ± 0.07	0.229 ± 0.089
GAACAGCAAUAUUACGUGAC	-1.63 ± 0.11	-0.482 ± 0.15
GAACAGCAAUAUUACGUUGG	-2.51 ± 0.08	-1.94 ± 0.1
GAAGAGCAAUAUUACGAACA	-2.15 ± 0.23	-1.54 ± 0.25
GAAGAGCAAUAUUACGAGGC	–	-1.8 ± 0.41
GAAGAGCAAUAUUACGAUUA	-2.33 ± 0.23	-1.85 ± 0.17
GAAGAGCAAUAUUACGCCAG	–	-0.627 ± 0.38
GAAGAGCAAUAUUACGCCAU	–	-1.61 ± 0.37
GAAGAGCAAUAUUACGCCUG	-0.984 ± 0.19	-0.756 ± 0.35
GAAGAGCAAUAUUACGCGAC	-3.8 ± 0.36	-1.18 ± 0.18
GAAGAGCAAUAUUACGCUCA	–	-1.33 ± 0.48
GAAGAGCAAUAUUACGCUGC	–	-2.63 ± 0.48
GAAGAGCAAUAUUACGGCGC	-1.12 ± 0.16	-0.427 ± 0.16
GAAGAGCAAUAUUACGGCGG	-3.45 ± 0.2	-2.19 ± 0.27
GAAGAGCAAUAUUACGUGAU	-3.4 ± 0.14	-1.51 ± 0.13
GAAGAGCAAUAUUACGUUGC	-3.04 ± 0.28	-2.25 ± 0.27
GAAUAGCAAUAUUACGAAUG	-1.42 ± 0.24	-1.15 ± 0.28
GAAUAGCAAUAUUACGACCA	-0.287 ± 0.13	-0.616 ± 0.13
GAAUAGCAAUAUUACGACCC	0.178 ± 0.39	–

Sequence	self-splicing fitness (ln) (30 °C)	self-splicing fitness (ln) (37 °C)
GAAUAGCAAUAUUACGAGUC	-3.29 ± 0.15	-1.4 ± 0.11
GAAUAGCAAUAUUACGAUAG	-0.707 ± 0.15	-1.47 ± 0.22
GAAUAGCAAUAUUACGCACA	-0.518 ± 0.15	1.18 ± 0.18
GAAUAGCAAUAUUACGCCGU	-1.6 ± 0.1	-0.466 ± 0.11
GAAUAGCAAUAUUACGCUGA	-2.56 ± 0.31	-0.623 ± 0.22
GAAUAGCAAUAUUACGCUUA	-1.5 ± 0.17	-0.146 ± 0.17
GAAUAGCAAUAUUACGGACG	-1.84 ± 0.16	-0.471 ± 0.22
GAAUAGCAAUAUUACGGAUA	-2.36 ± 0.26	-1.46 ± 0.21
GAAUAGCAAUAUUACGGCGC	0.0238 ± 0.14	0.023 ± 0.16
GAAUAGCAAUAUUACGGUGA	-1.69 ± 0.12	-1.36 ± 0.11
GAAUAGCAAUAUUACGUCUG	-1.85 ± 0.075	-0.674 ± 0.082
GAAUAGCAAUAUUACGUGUG	-2.23 ± 0.07	-1.52 ± 0.073
GAAUAGCAAUAUUACGUUGC	-4.27 ± 0.34	-2.69 ± 0.37
GACAAGCAAUAUUACGAAUU	-1.56 ± 0.063	-1.47 ± 0.099
GACAAGCAAUAUUACGACAG	-4.68 ± 0.22	-2.63 ± 0.14
GACAAGCAAUAUUACGACCU	0.335 ± 0.11	-0.133 ± 0.12
GACAAGCAAUAUUACGAUCC	-2.7 ± 0.22	-2.08 ± 0.34
GACAAGCAAUAUUACGCAAA	-2.04 ± 0.13	-1.81 ± 0.12
GACAAGCAAUAUUACGCAGC	–	-1.7 ± 0.22
GACAAGCAAUAUUACGCAUG	-2.33 ± 0.13	-0.814 ± 0.14
GACAAGCAAUAUUACGCCAG	-3.1 ± 0.3	–
GACAAGCAAUAUUACGCCUU	-1.15 ± 0.14	-1.04 ± 0.13
GACAAGCAAUAUUACGCGCA	-0.282 ± 0.099	-0.0559 ± 0.1

From the supplement of paper PMC7877785
